Measurements taken from a protein production outcome set (Wang et al. 2014).

Test: label from the status in PepcDB records
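Further: failed if final PepcDB status was selected cloned or expressed and not failed if soluble or beyond.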

Sequence | protein production
MRRNRVDVITLGCSKNLVDSEVLMRQFLSNGYTVHHDPASVCGEIVVVNTCGFIGDAQEESVNTILEMVEAKKAGRIGSLYVMGCLSERFREDLKKEIPEVDAYYGKFDWKQLISHLGKSYYAEAENRRKLTTPRHYAYLKISEGCDRSCSYCAIPIITGRHRSRPMEDLVEEVRMLVKHGTREFQLIAQDLTFYGLDLYGANRLAELTARLSDIKGVEWLRLHYAYPAQFPLDLLPVMRERPNVCKYLDMALQHISDPMLGRMRRRITKAETYELIERIRTEVPGIHLRTTLMTGHPGETERDFEELLQFVRDIRFERLGAFTYSHESGTYCDKNYQDDIPESVKQERLGELMAVQERISAAHNEAKIGSRLHVVIDRAEDGFYVGRTEYDSPEVDPEVLIPFVSGQELNPGRFYMAEVTGAEPFDLYARIVDLEHHHHHH | failed
MQITIKVLKGKDCTIEVAPTSTILEVKHQIEAELQISATNQKLLLLGRPLNNEQTIASYPNIKEGTKLNLVVIKPCLRDSILRGFRKHYSEPLAERMTNEFMADFERKINEQSLDDLERLADSIVNRAAT | failed
MIGDLDISGVFLPTLLVLMGITYGLYLLVHGVLTRLHFYRLVWHRALFNVGLYALLLGAVDSLSRYLMT | failed
MNMDFNLFMNDIVRQARQEITAAGYTELKTAEEVDEALTKKGTTLVMVNSVCGCAGGIARPAAYHSVHYDKRPDQLVTVFAGQDKEATARARDYFEGYPPSSPSFAILKDGKIMKMVERHEIEGHEPMAVVAKLQEAFEEYCEEV | not failed
MDVSVFLAALGISLLELTEAGAIAAIYHNIYKNNLPFIYAVLGVAIVLIPTFTLGKLIYLVPLNYVLLASAVILFYFGYRLIRSARRSFKGIKKKGGEEKEEGLSVVFTVSAIEGLEASLVILALIPQSYSSAVMGAILASVLVVILTAILKSQVARIRLPHLKFVLSALLFSLGTLWISEVVFDIPDLILPLFFLAYLGINYVIIKI | failed
LEEALGILDTQRVEIAKRRHLNAVLRHIPAGVAAVDNQGVVQSLNPALAQLLDLPVSAALGRPLQQLCPELDLQQALQEGTGEENRVMRLGSHAVVSNLLPILENGERTGLVLTCQDITVVQRADQRIR | failed
METEGSLSILHVDDDAELGALVELYLEREDSGLDCTVTTETNPETALSLIRSSETNFDCIVSDYDMPEMNGIDFLEAIRETHPELPVLLFSGEETGDVAAEIIQAGVTDYLKKSVGTDQYTSLIRRVEHAVDSDGSFETGNEVKLSGVGVIGTDERFERVGETYASYYGYESEELVGKHWSELHPSNEVQHIRTHVIPAVRSGGKWTGQSKGLRADETTFTESKMVTALEDGRMLIAVDEIDDSGLAE | failed
MTQDASPILTSLLDTDAYKLHMQQAVFHHYRHITVAAEFRCRSDELLGVYADEIRHQVTLMGQLALTSDEFIYLSSLPFFQDDYLHWLRDFRFKPEQVSVAVHDGKLDIRIAGLWCEVIMWEVPLLAVISEIVHRRRSTQVTTDQAVQQLRTKLEQFNALSADIDITHFKLMDFGTRRRFSREIQHTVVSTLKDEFPYLVGTSNYDLARTLALAPVGTQAHEWFQAHQQISPTLANSQRVALQVWLDEYPNQLGIALTDCITMDAFLRDFDLAFANRYQGLRHDSGDPIEWGEKAIAHYEKLGIDPMKKVLVFSDNLDLEKALFLYRHFYQRIKLVFGIGTRLTCDIPDVKPLNIVIKLVECNDKPVAKLSDSPGKTICQDPAFVDQLRKAFALPLVKKAS | not failed
GKIVEIGVGFYLEVAKRLRESGIDILVVDINEKAINYARKQGIKGVVDDIFNPTLGIYKDAKAIYSIRPAPEMMKPLLDLARKLKIPLYIVPLTGDR | failed
MSWFDDLFSNKENSDEELLRRKSKRRNGDLTQNKDDSLLPENNDIYDRPRGKFRFPIDVGQDENYEEAIYRDSNDDIGSYRPHSSNDHSSYDSFDYDGHTNQSNNYAKYDSSEDSRRRRRRNHINQDDTGIPSIKSRSPKSSNKYIDTRESQRFNKHQNNYSSTNVSNYSKANSNHQSRVKLQSERFKSNYHLSSEPTYHRSSFKTSEVPSAIFGTKKRRPIENGVIPPVKDDEDSKESITKYSSSTVEHVPHESNHAIADNSNKEDTKRSSQLDSSITIENESTIESSSNTSNNNERTPNYSKRDNTVNIENIYASQIVEEIRKERERKVQQKRKFKEALQNKRQQTDEEDSIQRAIDEMYAKQAEQYTGESSLNQGDNVSNKSNESEIDKSKHSYHSKDKSLVDEHNGLVQNQTDEQTNSDNVDNQTEVSNESHEPYNYEEIDLNQVSSVQQVRQDDVQVKDVLEEQSSKINNNKVESYSNEKFDDYLEDTNSHEEMLHDDDLHEQVMDDDENEGISNKTTDENNDEKIDDANYREINESESLMQDKANDLKFNDEVNNSENQQNSSENNINNAVRNAVSSDIEYATNEDEENDERLAQDTNKEDQKLSQSEDIQHESLNNEDVSLTSNKTDDSEHLEKDSLNEDKKAEPSFNKTNKAPQKMSIKPGSKPFNVVMTPSDKKRVMDAKKNSVSRNKVNVPELKPETKKEAQDEKMNAEFDNHLNESQLNSDESSDFNVASLEYNESSEHSVEKDNIINDENTRENEHQDVDNSQNNDMPKGNQFSKVQNSNNQNDNKHDINEFVSKEGYSEVTSTKNHKDGDDANHKAPIRRGPNIKLPSLDLLEDHEEHEIDESWIEEKKQELNDAFYYFNVPAEVQNVTEGPSVTRFELAVEKGVKVSRITALQDDIKMALAAKDIRIEAPIPGTSLVGIEVPNLNPTKVNLKSILESPKFKNAESKLTVAMGNRINNEPLLMDIAKTPHALIAGATGSGKSVCINSILMSLLYKNHPEELRLLLIDPKMVELAPYNDLPHLVSPVITDVKAATQSLKWAVDEMEKRYKLFAQFHVRNITAFNKKAPYEQRMPKIVIVIDELADLMMMAPQEVEQSIARIAQKARACGIHMLVATQRPSVNVITGLIKANIPTRIAFMVSSSVDSRTILDSGGAERLLGYGDMLYLGSGMNKPIRVQGTFVSDDEIDDVVDFIKDQREPDYLFEEKELLKKNQTQAQDELFDDVCEFMVKEGHISTSLIQRHFQIGYNRAARIVDQLEQLDYISGANGSKPRDVFITEADLKKE | failed
MPLLIITTILWAFSFSLIGEYLAGQVDSWFSAMFRLTAAAVVFLPFLRWRGYAPRVIFLYMLVGACQLGIMYLFVFQAYLYLTVPEFLLFTVMTPLYVTLIYDLLARHRLRWGYVMSALLAVFGAAVIHYHGVSEHFWWGFLLVQVANVCFASGQVGYKRLMEIHPVPQHCAFSWFYLGAAIVTIAAWLLFGNMDKLPTTTLQWGVLAWLGIGASGVGYFMWNYGATQVDAGTLSIMNNFHVPAGLLVNFAIWHKTPDWLSFIVGTAIITSSLWVHQHWVVKRPLRTANDHKRADAQNE | failed
MKENLELVEFFEYLLILVLNMLVASIVFLQEYCIGSIRLSHYRRIFATVMAIRSLVSIWIIYPMTATLLGTLNILVIQSIILLFLWGLMQCVKKYRGKWYITMIALIIYGLSCYFHIMYAKTV | failed
MGQVEVIDRRQSVFGDDIQLQKRSSSYEIISNGVFLMSTENGRSEREMVTLGAQHMKNAVHSVLIGGLGVGITADEAVHLNDHVQVHVVEIEPSVVEWQYRYLYPFSNQALEHERTAIIISDIQQWLRTNERTYDLICLDTDNGPDWMVHKQNASLYGKIGLELVRERVRVGGAVSFWSASASESFLHELETLFDRVYEHAVSISHTLPPDYVYVACRDLEHHHHHH | not failed
MSVYKLTDLRDNSTNWKINVKILSIWNHPPNSHGEIMTMILHDDKNNRVDATIPQGNYHNPFRPFLKPGTWIHISDFRVIVPQSRVRYSSFCFHIKFIWETSVYPLPELVKRDFFDFIFPIDLKYPCLEDWDYVTDAMSEVTNISAIKKFPFVCRQGETDYESRYVSFELLDNMGEKMKCYAVGRCCELFVINFSKCISSASYNYQPIVAIVRFWRIAEIEGENVLKSEFGCSRIYLNPTNFPEIDIQSYIRGFEDYDELPENPRMEVIEEN | failed
MEINNNISSTIPLVDIVLVFCYVFSFYVIGPLTSSVIIALPLMFCCLYKKKWGYCLLLELKNSFIVRIFISQWLLIGIAVFYSCLHLTMELEYIKVLIAQMFHFICGIFIIIYLKYQKQYTTLKIEQTIIWAFLVQSIIQLIAMSIPSFAHFILYFSRAHDLQDAYGGGVRGLALSSGVGWSLGLAYGLIYIVFVKRYLLSGVNMKSTLIGILLLMGTIFAGRTGFVGACLGGIFFIISNQLSYRTKLMFVLKILLGVILFFLCIYFLFPSMTEHLVDNVFPFAFEPFYKMYYNDEFSTSSTDRLEEMWRVSTSVEEILYGSGSFIDTITGAYYKHIDIGILRNLFYWGIGGYILLIIYQLILIAPIKYNKIQRVSHFNMFFYKLLIIVYLFLLECKAVTIGLNKMTFSVIFLIAYFYFDEIHSKKYIAELR | failed
MNPPDISVLIVSFNTRDLLRRCLASLRDQAGGTGIETIVVDNASRDGSADMVEAEFPDVRLIRSPVNLGFGNANNLAFTQSRGRYLVLLNSDACLAPGLLDAASKRMDACPDVGMAGGRLVGPEGGWQPSARMFPSLLNEFLVLSGLAHRYPKSRLFGRFDRTWADPSEEAGVDWVPGAFAILRRDLIDRIGFFDPRFFLYYEEVDLCRRIRAAGCKIMYWPELVITHLGGESAKTLSDMEFSSHASQLTLWRMRSQALYYRKWHGLALAWSAKTLEQLWHWLRALRHRRSAPAKAHDSEALIRLWNRAWKETEGGRVSPPQPWLEHHHHHH | failed
MEIRTLALKTPEGQPFTMWIYQHDQFTLFPDDRLWPLALIFPGGGFAGYSEREVEAVALKFIAKGYQAAVVKYNLTSDGPFYPTAATIGLAALSYVKRHAQELNADFDHVVVSGFSAGGHLVAVMTALGAQSEFLNNHGFEETKLVPFAQILSYPVIDLTMGFPTSQHEMMAVTTDESYWHAQELVTSQTPPTFIWATRTDELVPVVNSLVYLAALGEHNVPFESHIYAAGVHGLAFGDLADSRYHHPEDVVPRVQNWFPMALGWLRTLYASKNSTEILEHHHHHH | failed
SLRKERARSAEEPWTQNQQKLLELALQQYPRGSSDCWDKIARCVPSKSKEDCIARYKLLV | not failed
MSDHNNKGRQQDVKALPRRVDERLNLSRHKEVKPSRLHDEVHRIVYELEARQLELEMQQENMLQSKEEMECLLKRYVEHYDIAPHSYMTISREGSILEANLTAAKNLGQDRALLKGDLLEKFIADKDRPVFKAFLERVFRGQTNAFCEVKLFNNQASQARGSAEADRYETVIEERMVRFDAALSNDGEECYIYITVSDRGSQNELEGQNTFFTDRLKDDIADMPDSDKVDFNYQLFDSVIHTRIRLAALSYLYTVKQACFVEIRDKIKASDGSLSVHMRMLESAGYISCDKEFLARKPQTVYRITPLGHDAFLKYSDIVFSLIAKKQEAS | failed
MTPGGLFLPYHSLPQPDFLASCPTRHLKLCQCPGILAENPHQFSPTFPPGKGSCQHGALPGQVSLKEAAHTEMSLSGQDLFPSPAHPPLQPFWLPFSLCLSTPFLVADNELRLPKGQICPLHVFVLANRVVLKLCANSVWEHSKGIT | failed
MKPPADNNKEGAESHKLESESKPIWKSMSMFLVPLLLSNVLQSVGQLFGMVVVGRWLGVNDLAAISAFFPLFFLLVSFVIGIGSGSSILIGQAFGAKNEDRLKAIVGTTLTFTFIIGVLLAIIGSIFAMDIMRLMGTPENIIEISVHYARILFISMPVLFLYFAYTTFMRGTGDSKTPFYFLIVSTALNMILLPILIFGWLGAPKLDVYGAAYASVISTVITFIVMLVYLKKKNHPLQLDGTVRKYLRMDGELLKLLLRLGIPASINMILVSLSEIAVIAFVNRYGSDATAAYGVVNQVASYVQMPAVSLGITVSIFAAQSIGANQFDRLQKVVKAGIIMNYVIGGVLISLIYVFSRDILSLFLTSQTTIEIAHSLVMITLWSYLIFGHAQIISATMRASGTVLWPTVIGVVSIWLVEVPVAYYLSYHTSLGIEGIWIGYPAAFIVSLILQYAYYKLSWQKKRITRLVS | not failed
